In assay [1] the target is Kv2.1 "wild-type" base construct hKv2.1-m7-c3 (human Kv2.1, residues 1-858, mutated to confer AgTx2 (human) (UniProt Q14721)). The assay is described as follows: cell-based or functional assay.
Assay [2] concerns the target Kv2.1 R300S (on the hKv2.1-m7-c3 base construct) (human) (UniProt Q14721). The assay is described as follows: cell-based or functional assay.

For one substance, mean inhibition of the maximal outward (alpha pore) current results are on record in patent US20150087552A1.

Sequence of AgTx2 (Agitotoxin-2 / agitoxin 2, scorpion toxin) (P46111 whole entry): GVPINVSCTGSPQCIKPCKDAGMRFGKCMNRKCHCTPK

As to “AgTx2 (Agitotoxin-2 / agitoxin 2, scorpion toxin) (from UniProt P46111 1-38) (peptide)”, the mean inhibition of the maximal outward (alpha pore) current at +60 mV by 1 nM AgTx2, two-electrode voltage clamp, Xenopus oocytes in assay [1] is 66.5%; in assay [2], 67.8%.
